{"source": "patent US20050227220A1", "about": "“Compositions and Methods for Evaluating and Designing Nuclear Receptor Ligands that Modulate Co-Regulator Affinity” (priority 2002, published 2005)", "molecules": {"B1": {"name": "GAL4-NcoR (2012-2103) (other)", "chain": "MKLLSSIEQACDICRLKKLKCSKEKPKCAKCLKNNWECRYSPKTKRSPLTRAHLTEVESRLERLEQLFLLIFPREDLDMILKMDSLQDIKALLTGLFVQDNVNKDAVTDRLASVETDMPLTLRQHRISATSSSEESSNKGQRQLTVSGPLHHYRPQQESPSPQQQLPPSSQAEGMGQVPRTHRLITLADHICQIITQDFARNQVSSQTPQQPPTSTFQNSPSALVSTPVRTKTSNRYSP", "notes": "range 1-147;range 2012-2103; also called NCoR fragment (2012-2103) that contained NCoR ID-N"}}, "key": {"PPARδ LBD / RXRα LBD": {"molecular_target": "T1, PPARδ LBD / RXRα LBD (Homo sapiens, UniProt Q03181)", "T1 sequence (Q03181 139-441)": "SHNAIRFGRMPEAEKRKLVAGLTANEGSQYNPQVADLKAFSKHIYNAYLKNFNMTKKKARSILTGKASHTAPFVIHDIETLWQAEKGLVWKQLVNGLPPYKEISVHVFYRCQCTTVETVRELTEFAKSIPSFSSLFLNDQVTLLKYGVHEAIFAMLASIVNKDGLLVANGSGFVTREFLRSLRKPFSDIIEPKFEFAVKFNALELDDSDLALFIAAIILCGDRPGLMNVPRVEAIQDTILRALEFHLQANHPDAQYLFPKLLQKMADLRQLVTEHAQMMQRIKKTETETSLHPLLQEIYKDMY", "T1 sequence (P19793 225-462 partner limits assumed)": "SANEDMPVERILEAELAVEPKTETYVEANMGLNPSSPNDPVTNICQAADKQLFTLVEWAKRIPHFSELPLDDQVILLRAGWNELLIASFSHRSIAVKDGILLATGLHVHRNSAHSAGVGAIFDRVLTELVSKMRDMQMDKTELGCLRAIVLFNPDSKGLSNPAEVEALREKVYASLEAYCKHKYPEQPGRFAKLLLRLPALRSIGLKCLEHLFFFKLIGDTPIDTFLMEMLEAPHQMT", "assay": "FRET assay: ligand effect on RXRα LBD binding to PPAR LBD", "conditions": "10 nM PPAR LBD, 4 concentrations of RXR"}, "PPARδ LBD [1]": {"molecular_target": "T2, PPARδ LBD (Homo sapiens, UniProt Q03181)", "T2 construct": "made in house; host or cells: bacterial BL21-DE3, vector pRSETA", "T2 sequence (Q03181 139-441)": "T1 sequence (Q03181 139-441)", "assay": "Fluorescence polarization assay for ligand modulation of nuclear receptor/cofactor peptide affinities", "format": "biochemical", "conditions": "result in words", "procedure": "Such tests were performed quantitatively by measuring the effect of an excess of ligand on the binding affinity of the co-repressor peptide.\nAll experiments were conducted with buffer containing 10 mM HEPES, pH 7.4, containing 0.15 M NaCl, 3 mM EDTA, 0.005% polysorbate-20 and 5 mM DTT. Varied concentrations of receptor were incubated at room temperature with 10 nM of fluorescein-labeled NCOR ID-C or SMRT ID-C peptides. […] Binding isotherms were constructed and apparent KD values were determined by non-linear least squares fit of the data to an equation for a simple 1:1 interaction. […] Complex formation was monitored by fluorescence polarization as described in methods. […] All assays were performed in duplicate and affinities are the average of at least two independent experiments."}, "PPARα LBD": {"molecular_target": "T3, PPARα LBD (Homo sapiens, UniProt Q07869)", "T3 construct": "made in house; host or cells: bacterial BL21-DE3, vector pRSETA", "T3 sequence (Q07869 192-468)": "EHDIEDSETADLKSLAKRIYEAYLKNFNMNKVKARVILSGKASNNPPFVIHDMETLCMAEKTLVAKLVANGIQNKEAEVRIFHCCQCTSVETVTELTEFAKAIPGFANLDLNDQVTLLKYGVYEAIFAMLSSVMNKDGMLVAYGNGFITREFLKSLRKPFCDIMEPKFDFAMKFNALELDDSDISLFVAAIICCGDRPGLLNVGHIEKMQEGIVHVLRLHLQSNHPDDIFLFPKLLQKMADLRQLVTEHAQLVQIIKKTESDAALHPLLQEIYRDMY", "assay": "FRET assay: ligand effect on CBP fragment / NCoR ID-C binding to PPAR LBD", "format": "biochemical", "conditions": "10 nM PPAR LBD, CBP (57-454)", "text": "(§1) The experimentally determined α value is the ratio of cofactor affinities in the presence and absence of a saturating concentration of ligand. This analysis permits a direct comparison of the effects of compounds, independent of cofactor concentration and differences in coregulator affinity for the individual receptors. […] 98(9): p.\n(§2) The effects of the coregulator environment on the apparent affinities and selectivities of various ligands were than examined. Experimentally determined pKs and the α values derived from the FRET assay were used to calculate the apparent affinity of the ligand for the receptor/cofactor complex (i.e. K/α).\n(§3) FIG. 5 illustrates the effect of ligands on coactivator and corepressor binding to PPAR subtypes determined by FRET."}, "PPARδ LBD [2]": {"molecular_target": "T2, PPARδ LBD", "assay": "FRET assay: ligand effect on CBP fragment / NCoR ID-C binding to PPAR LBD", "format": "biochemical", "text": "as §1, §2, §3"}, "full length human PPARα": {"molecular_target": "T4, full length human PPARα (Homo sapiens, UniProt Q07869)", "T4 construct": "expressed in transfected cells; host or cells: CV-1 cells, vector pVP16 (Clonetech)", "T4 sequence (Q07869 1-468)": "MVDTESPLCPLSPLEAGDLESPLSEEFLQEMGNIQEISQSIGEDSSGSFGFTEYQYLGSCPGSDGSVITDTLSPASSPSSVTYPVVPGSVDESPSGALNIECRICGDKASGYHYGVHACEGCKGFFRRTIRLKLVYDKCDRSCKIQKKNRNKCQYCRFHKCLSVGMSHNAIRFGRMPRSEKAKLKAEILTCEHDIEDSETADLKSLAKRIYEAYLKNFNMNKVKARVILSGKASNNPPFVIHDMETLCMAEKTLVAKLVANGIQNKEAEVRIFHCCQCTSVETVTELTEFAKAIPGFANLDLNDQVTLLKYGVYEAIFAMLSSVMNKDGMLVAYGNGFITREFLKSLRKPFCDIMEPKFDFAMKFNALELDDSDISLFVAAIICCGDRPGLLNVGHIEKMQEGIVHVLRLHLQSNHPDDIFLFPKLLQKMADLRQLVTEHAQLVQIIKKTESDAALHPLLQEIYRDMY", "assay": "Mammalian two-hybrid assay (CV-1 cells)", "format": "cell-based", "conditions": "VP16-PPARα, GAL4-NCoR (2239-2300), result in words", "text": "(§4) Mammalian two-hybrid assays were used to examine the ability of the tyrosine-based class of PPAR ligands to promote association or dissociation of the co-activator CBP and the corepressor NCoR in the context of a cellular environment. The assays for the three PPAR subtypes used full length human PPARα, PPARγ2 or PPARδ fused to the activation domain of VP16 and previously identified interaction domains of CBP and NCoR fused to the DNA binding domain of GAL4.\n(§5) Expression plasmids for the VP16-human PPAR constructs were prepared by inserting amplified cDNAs encoding full length PPARα, PPARγ2 and PPARδ fused to amino acids 410-490 of the VP16 viral activation domain, into the expression vector pVP16 (Clonetech). […] The reporter plasmid was (UAS)5-tk-SPAP, and the internal control plasmid for all transfections was β-galactosidase expression vector (pCH110, Amersham).\n(§6) CV-1 cells were maintained in culture in DME high glucose medium supplemented with 10% FBS and 2 mM glutamine in a humidified incubator (5% CO2 in air) at 37° C. Cells were harvested 72 hours prior to experimental use and placed in phenol red free D-MEM/F-12 medium with 15 mM HEPES supplemented with 10% charcoal/dextran-treated FBS (HyClone, Logan, Utah). The cells were harvested and seeded at 2.0×10^4 cell per well in a 96-well plate the day prior to transfection. Cells were transfected for 16 hr using Lipofectamine (Life Technologies, Inc., Rockville, Md.) essentially according to the manufacturer's instructions. The total amount of DNA transfected into each well was 80 ng. Transfection mixtures contained 8 ng VP16-PPAR plasmid, 8 ng SPAP reporter, 25 ng of pCH110(β-galactosidase) control plasmid, 35 ng of pBluescript II KS+ (Clonetech) and 4 ng of either coactivator or corepressor plasmid. Transfection quantities for full length PPAR and cofactor plasmids were optimized to generate a signal that was half of the maximal activation. These conditions would allow for dissociation or association to be experimentally determined for each ligand evaluated. Stock solutions of drugs were prepated in DMSO and dilutions were made in phenol red-free D-MEM/F-12 with 15 mM HEPES supplemented with 10% charcoal stripped, delipidated, heat inactivated (62° C. for 35 min) bovine calf serum (Sigma, St. Louis, Mo.) such that the final concentration of DMSO was 0.1%. Transfection mixtures were aspirated and 100 μl, of medium containing drug was added to each well."}, "full length human PPARδ": {"molecular_target": "T5, full length human PPARδ (Homo sapiens, UniProt Q03181)", "T5 construct": "expressed in transfected cells; host or cells: CV-1 cells, vector pVP16 (Clonetech)", "T5 sequence (Q03181 whole entry, the tested form may be a part)": "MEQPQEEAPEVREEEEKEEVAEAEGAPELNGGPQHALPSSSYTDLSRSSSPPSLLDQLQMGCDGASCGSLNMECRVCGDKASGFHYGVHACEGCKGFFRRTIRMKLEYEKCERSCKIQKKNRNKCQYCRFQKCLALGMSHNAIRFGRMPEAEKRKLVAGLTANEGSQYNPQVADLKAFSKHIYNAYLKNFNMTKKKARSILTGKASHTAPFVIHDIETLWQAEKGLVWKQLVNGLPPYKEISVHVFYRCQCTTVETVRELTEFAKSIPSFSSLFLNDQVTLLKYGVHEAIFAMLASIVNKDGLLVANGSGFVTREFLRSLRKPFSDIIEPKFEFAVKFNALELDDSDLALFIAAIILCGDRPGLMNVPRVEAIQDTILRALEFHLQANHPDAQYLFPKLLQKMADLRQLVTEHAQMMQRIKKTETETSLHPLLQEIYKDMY", "assay": "Mammalian two-hybrid assay (CV-1 cells)", "format": "cell-based", "conditions": "VP16-PPARδ, GAL4-NCoR (2239-2300), result in words", "text": "as §4, §5, §6"}, "[3]": {"molecular_target": "T6, VP16-human PPARδ (full length) (human, UniProt P06492 410-490; Q03181 1-441)", "T6 construct": "also called VP16 full length PPARδ", "assay": "mammalian two-hybrid in CV-1 cells"}, "[4]": {"molecular_target": "T7, VP16-human PPARα (full length) (human, UniProt P06492 410-490; Q07869 1-468)", "T7 construct": "also called VP16 full length PPARα", "assay": "mammalian two-hybrid in CV-1 cells"}, "[5]": {"molecular_target": "T8, VP16-human PPARγ2 (full length) (human, UniProt P06492 410-490; P37231 1-505)", "T8 construct": "also called VP16 full length PPARγ", "assay": "mammalian two-hybrid in CV-1 cells"}, "[6]": {"molecular_target": "T9, human PPARδ ligand binding domain (amino acids 139-441) (human, UniProt Q03181 139-441, Biotinylated (site not stated) in the FRET assays; unlabelled in fluorescence polarization and SPR.)", "T9 construct": "placed at the N-terminus here; Biotinylated for FRET; also called PPARδ LBD", "T9 sequence": "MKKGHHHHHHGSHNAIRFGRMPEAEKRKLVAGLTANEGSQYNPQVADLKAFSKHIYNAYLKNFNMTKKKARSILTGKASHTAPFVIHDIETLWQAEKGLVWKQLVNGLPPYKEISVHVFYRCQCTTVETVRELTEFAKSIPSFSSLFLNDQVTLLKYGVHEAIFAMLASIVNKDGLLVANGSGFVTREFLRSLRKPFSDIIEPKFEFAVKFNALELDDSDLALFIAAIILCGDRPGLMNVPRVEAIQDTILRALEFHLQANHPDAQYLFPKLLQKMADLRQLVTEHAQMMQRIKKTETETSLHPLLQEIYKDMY", "assay": "fluorescence polarization, apparent affinity, with GW1929"}, "[7]": {"molecular_target": "T10, human PPARγ ligand binding domain (amino acids 206-477) (human, UniProt P37231-2 206-477)", "T10 construct": "range 206-477; placed at the N-terminus here; Biotinylated for FRET; also called PPARγ LBD", "T10 sequence": "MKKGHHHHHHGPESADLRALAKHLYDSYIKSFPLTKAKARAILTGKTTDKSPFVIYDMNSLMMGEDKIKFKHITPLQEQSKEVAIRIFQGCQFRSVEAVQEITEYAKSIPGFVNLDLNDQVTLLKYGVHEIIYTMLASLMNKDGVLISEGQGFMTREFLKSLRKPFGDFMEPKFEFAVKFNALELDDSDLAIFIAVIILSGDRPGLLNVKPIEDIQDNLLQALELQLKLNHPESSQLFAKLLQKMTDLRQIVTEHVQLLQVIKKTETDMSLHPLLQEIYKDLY", "assay": "fluorescence polarization, apparent affinity, with GW1929"}, "[8]": {"molecular_target": "T9, human PPARδ ligand binding domain …", "assay": "fluorescence polarization, apparent affinity, with rosiglitazone"}, "[9]": {"molecular_target": "T10, human PPARγ ligand binding domain …", "assay": "fluorescence polarization, apparent affinity, with rosiglitazone"}, "[10]": {"molecular_target": "T9, human PPARδ ligand binding domain …", "assay": "fluorescence polarization, apparent affinity, no ligand"}, "[11]": {"molecular_target": "T10, human PPARγ ligand binding domain …", "assay": "fluorescence polarization, apparent affinity, no ligand"}}, "note": "No end group written: not given here. *: point of attachment. Biotin = O=C1N[C@H]2[C@H](CS[C@H]2CCCCC(=O)*)N1"}
{"molecule": "CN(CCOc1ccc(C[C@H](Nc2ccccc2C(=O)c2ccccc2)C(=O)O)cc1)c1ccccn1", "note": "[GW1929]", "values": [{"measurement": "promotion of association of PPARδ with RXR", "setting": "PPARδ LBD / RXRα LBD", "result": "most effective"}, {"measurement": "effect on PPARδ interaction with the coactivator peptide (TRAP220)", "setting": "PPARδ LBD [1]", "result": "little or no effect"}, {"measurement": "effect on apparent affinity of PPARα for the co-activator fragment from CBP", "setting": "PPARα LBD", "result": "increased the apparent affinity"}, {"measurement": "effect on apparent affinity of PPARδ for the co-activator fragment from CBP", "setting": "PPARδ LBD [2]; 10 nM PPAR LBD, CBP (57-454)", "result": "increased the apparent affinity"}, {"measurement": "effect on affinity of PPARδ for the co-repressor peptide", "setting": "PPARδ LBD [2]; 10 nM PPAR LBD, NCoR ID-C", "result": "greatest effect"}, {"measurement": "log α (NCoR association with PPARδ)", "setting": "PPARδ LBD [2]; α = ratio of cofactor affinities in presence and absence of saturating ligand", "result": 0.52}, {"measurement": "effect on PPARα interaction with NCoR", "setting": "full length human PPARα", "result": "neither GW1929 nor GW7845 were able to promote association with NCoR"}, {"measurement": "effect on PPARδ interaction with NCoR", "setting": "full length human PPARδ", "result": "slightly promote association"}]}
{"molecule": "B1", "values": [{"measurement": "binding result", "setting": "[3]", "result": "no binding"}, {"measurement": "binding result", "setting": "[4]", "result": "no binding"}, {"measurement": "binding result", "setting": "[5]", "result": "no binding"}]}
{"molecule": "Biotin-GHGEDFSKVSQNPILTSLLQITGNG (not fully specified; printed as biotin-GHGEDFSKVSQNPILTSLLQITGNG, also called TRAP220 575-599)", "note": "[TRAP220 peptide (amino acids 575-599)]", "values": [{"measurement": "Kd", "setting": "[6]", "result": 3.4, "unit": "µM"}, {"measurement": "Kd", "setting": "[7]", "result": 0.79, "unit": "µM"}, {"measurement": "Kd", "setting": "[8]", "result": 1.8, "unit": "µM"}, {"measurement": "Kd", "setting": "[9]", "result": 1.5, "unit": "µM"}, {"measurement": "Kd", "setting": "[10]", "result": 2.3, "unit": "µM"}, {"measurement": "Kd", "setting": "[11]", "result": 3.9, "unit": "µM"}]}
